The record followed here is the DeepSol protein solubility set.

The nature of this data set: soluble on expression in E. coli; label from the status in PepcDB or PDB records.
Turning to “MGSDKIHHHHHHMNFCRILLKPLKKNEALSGYSAEGLHYLTDNKHFNPELPFSRQEFITVKPQKQQGMSISGFQPKLQLIIKDEHFDSVNQQGNYILKPSPEEYPFLAENEHATMRIMKELGFDVPENGLVSFAGEQNHKEFAFVITRFDRDKQQKPMHQEQLDGAMNIRDKYGKIGADNEQYVSYEQIAKFILQHTENHLAQQREIFRRIIYAYLLGNNDLHLRNFSFIYPKNSHPKLAPIYDFVSVSPYPEIFNSTLLALPLLAREEGNATLAKGFNTQYGEYIGDDFVEFGENIGLNKNVIIQKLIPEIIQEKEKVEQIYSQSFMPQPHIDCVLKTYRKRLALLNLLNEPEL”, the “soluble on expression in E. coli” value was “not soluble”.
Take “MSLKTKFGKCIYISPSGYKVYQNLLYRWLTLGSEAWQTVINRYIPRRPGLHYLQILTLMARKFPNDCCLLGLGGAGIAHLLGAQKTIRSIVAVESSEEVIQIAKKFFMTDLIPHFTITHQNARDFVRENKKTFQHMLLDLYDATHFPDECHSMDFFIHCKKQLTDDGFLAVNLANSQEQWALVQLIKKQFPSNIIIPIKKCANIVVIASKNDNKDLFIKQVRNTNEIKKITWVKDWGYVAEYEGHHHHHH”: the “soluble on expression in E. coli” value is “not soluble”.
For “GSHMDASKIDQPDLAEVANASLDKKQVIGRISIPSVSLELPVLKSSTEKNLLSGAATVKENQVMGKGNYALAGHNMSKKGVLFSDIASLKKGDKIYLYDNENEYEYAVTGVSEVTPDKWEVVEDHGKDEITLITCVSVKDNSKRYVVAGDLVGTKAKK”, the “soluble on expression in E. coli” value is recorded as “soluble”.
Then “MVSDAAERNLAFALSELDRITAQLKLPRHVEEEAARLYREAVRKGLIRGRSIESVMAACVYAACRLLKVPRTLDEIADIARVDKKEIGRSYRFIARNLNLTPKKLFVKPTDYVNKFADELGLSEKVRRRAIEILDEAYKRGLTSGKSPAGLVAAALYIASLLEGEKRTQREVAEVARVTEVTVRNRYKELVEKLKIKVPIA”, with “soluble”; and “MLRKEEILERTSNGLSVFKHYVPGNWRIGRNFLNPLYEDNKASCNIYFDRRSGIYKMKDFGNDNYSGDCFFFVGQLKGLDCNNSMDFVEILETIDRDLGLGLATGNPIPVTRNSCRVVDNILEETPEKESKPYQFREQKFPLAELMYWQQYGITPEILELYKVCSLRDFQSVTADGTQFTYTSSVTEPMYGYKSKRYIKLYRPFSKTRFLYGGNFGDNYCFGLEQLPAKGDTLFITGGEKDVMSLAAHGFHAICFNSETVTVPPTLIYKLTFRFKHIILLYDTDKTGKESARKQEKQLEEFSVKRLLLPLSGTKEEKDISDYFKAGNTREDFLKLFIEFLDNLYSDTLIMLKSCEIDFNNPPAKAQVIISAGDVPLGTQGNLFGITGGEGTGKSNYIAAMLAGCICQPDKEVDTLGIQITANSKRKAVLLYDTEQSEVQLFKNVSNLLARAKQPDKPEELKAFCLTGMSRKERLHAIVQSMDKFYYQYGGIQLVVIDGIADLVKSANDEAESVAVIDELYRLAGIYNTCILCVLHFVPNGLKLRGHLGSELQRKAATILSIEKDEEPTQSVVKALKVRDGSPLDVPLMLFAWDKAAGMHLYKGEKPREEKEKRKEKELVCVARDIFGRQTHITYIDLCEQVAAGFGRERTYCQKLCSFHAGTGYYH”, with “not soluble”; and “MTIDLNAMLAKRAEVLGEGNKFDVKLGNKTFYFVAPELASSEWNDRHQAFLEDIRDGLMTSATAREEFLGLALEDQAEEFAEAADNIGVDPFIIAQMAFQEHAEYVGKTQSQKSLNRTQRRAKQR”, with “not soluble”.
With “MYLGRHFLAMTSKALFDTKILKVNPLSIIFSPDAHIDGSLPTITDPETEAALVEAARIIRDTDETVAFPTETVYGLGGSALNDNSVLSIYRAKNRPSDNPLITHVSSIDQLNRKVFNQPHLSGTSLFDNIPSIYRPLISSLWPGPLTILLPVPSSEHSALSKLTTADQPTFAVRIPANPVARALIALSDTPIAAPSANASTRPSPTLASHVYHDLKDKIPIILDGGACKVGVESTVVDGLCNPPTLLRPGGFTYEEIVKLGGEAWSLCKVENKKTVEKGEKVRTPGMKYRHYSPSAKVVLLVPHCEGDGILKGVDRMERLKRLIETELKANSNIKKIAILTSLKLRDSDLQSKIFNEPDFSSKTFIIERLGQSGEEIQTNLFAALRKVDENDKVDLIFVEGINEEGEGLAVMNRLRKAAANNCIQF”, the “soluble on expression in E. coli” value was “not soluble”.
As for “ISEFGSTMARAIYDFFSTPFGNRGLATNRTQLSSLLSSSNSPWQRFLSSMTPLTAPGIVSTPEAPYPGSLMYQESMLHSATVPGVLGSRDAWRTFNVFGLSWTDEGLSGLVAAQDPPPAAPYQPASAQWSDLLNYPRWANRRRELQSKYPLLLRSTLLSAMRAGPVLYVETWPNMISGRLADWFMSQYGNNFVDMCARLTQSCSNMPVEPDGNYDQQMRALISLWLLSYIGVVNQTNTISGFYFSSKTRGQALDSWTLFYTTNTNRVQITQRHFAYVCARSPDWNVDKSWIAAANLTAIVMACRQPPVFANQGVINQAQNRPGFSMNGGTPVHELNLLTTAQECIRQWVMAGLVSAAKGQALTQEANDFSNLIQADLGQIKAQDDALYNQQPGYARRIKPFVNGDWTPGMTAQALAVLATFTA”, the “soluble on expression in E. coli” value is on record as “soluble”.
With “MKLINTTWTHQELVNNQLDNTDAFLVETYSAGNTDVVFTQAPKHYELLISNKHRAVKDNELEVIREFFLKRKIDKDIVLMDKLRTVHTDKLIEISFPTTV” the entry was “soluble”.
As to “MAAKLEKTTNSFEVITREWYAKFSPTWNESHGERIIRRFERDIFPWIGSKPISEIAAPELLATVRRIESRGAVETAHRALGNCGQVFRYAIATARATRDISADLRGALPPVKGEHLEHHHHHH”, the “soluble on expression in E. coli” value is on record as “soluble”.
With “MGSDKIHHHHHHFLDELPDNRTELNSEQKIAKMLVSAYPEGSANELFELYSDNTDDNSARYSYYKLSEEECYNWKDTQEEYQDTPTNLWETHYIAIASANMALEEIEKRGNPESLMPQRGEALVCRAYNHFVLANIFCNAYNTHASQELGIPYMTKVETTVQPQYGRGTLQETYEKIEKDLLDGMALISDDSYSVPKYHFTRKAAYAFAARFYLYYMKPDFSNCDEVIKYADRVLGSDPAAELRDWEALGKLSANDNVQPDAYIASTSKANLLIGSTVSNWGIILSNYMTGKRYLHNKLIASYETSRSSGLWGIPDRMYMQPFTTSGYECSMLRKGGYYAGDYLYYMPVIFSTDETLLCRAEAYTLKKNYPMAAADLTTWEKAYTSNKQTLTPGMINEYYDKMDYYNPTQNPTPKKKLQPDFTIESGIQENFIHCILHMRRIATLHEGLRWPDIKRYGIVIYRRSIANNNIVVTDEMPVNDARRAMQIPKSVVLAGMQPNPRTEN”, the “soluble on expression in E. coli” value was “not soluble”.
Consider “MSLLGRVLLFYKKGIFNDDLKKFLRSKNINVIDVRIGKYVEVDIMDDPRKVISLIGEPLFMVTEISGTFKPLFYEMRFWECHEIIEEKWREVKNKDDKKFLQAIILLCASLIKYLKGEIEVSDMLMEKALSLISDLPQELLPLLYISLGLNTEGHHHHHH”, for which the “soluble on expression in E. coli” value was “soluble”.
Regarding “MKEKIPFYNEKEFNEMMKKTKKGTFSGWYIINPENKSVEFSGNFNRQFKLNKPVIPVNTEYVTRKEFNEYKDSNDQRLTKIENKVDKLEVKVDKLEEKVDKLEAKVDKLEEKVDKLEAKVDKLEEKVDKLEAKVDSGFEMLAKILAAINKRLDSIEGRLDKIEPPKLEHHHHHH”, the “soluble on expression in E. coli” value is recorded as “not soluble”.
In the case of “MGSDKIHHHHHHMSNKKLIINADDFGYTPAVTQGIIEAHKRGVVTSTTALPTSPYFLEAMESARISAPTLAIGVHLTLTLNQAKPILPREMVPSLVDEAGYFWHQSIFEEKVNLEEVYNEWDAQIISFMKSGRRPDHIDSHHNVHGKNKKLLGVALALARKYQLPLRNASRSIETKDYLELYQDVRTPDEMLYQFYDKAISTETILQLLDMVVCSEGEVFEINCHPAFIDTILQNQSGYCMPRIREVEILTSQEVKEAIEERGILLANYESLAM”, the “soluble on expression in E. coli” value was “not soluble”.
In the case of “MSLAHAQMEMPPRSLGAVIEQAEAQEAPILLEVYAPWCPYCQRMQENVYADAEVRSYLDRRFTYARLNRDTTGGTHRFNGRTLSSKELGMALGARGVPTTVFMKPDGTPIAKQPGYIKRPVFLQMLRYFGSGAYEEQSFEAFRARASEGHHHHHH”, the “soluble on expression in E. coli” value is reported as “not soluble”.
With “MMAKKPPKPAPRRIFQERLKITALPLYFEGFLLIKRSGYREYEHYWTELRGTTLFFYTDKKSIIYVDKLDIVDLTCLTEQNSTEKNCAKFTLVLPKEEVQLKTENTESGEEWRGFILTVTELSVPQNVSLLPGQVIKLHEVLEREKKRRIETEQSTSVEKEKEPTEDYVDVLNPMPACFYTVSRKEATEMLQKNPSLGNMILRPGSDSRNYSITIRQEIDIPRIKHYKVMSVGQNYTIELEKPVTLPNLFSVIDYFVKETRGNLRPFICSTDENTGQEPSMEGRSEKLKKNPHIA” the entry was “soluble”; with “MKTLLLLIPLVLTACGTLTGIPAHGGGKRFAVEQELVAASSRAAVKEMDLSALKGRKAALYVSVMGDQGSGNISGGRYSIDALIRGGYHNNPDSATRYSYPAYDTTATTKSDALSGVTTSTSLLNAPAAALTKNNGRKGERSAGLSVNGTGDYRNETLLANPRDVSFLTNLIQTVFYLRGIEVVPPEYADTDVFVTVDVFGTVRSRTELHLYNAETLKAQTKLEYFAVDRDSRKLLIAPKTAAYESQYQEQYALWMGPYSVGKTVKASDRLMVDFSDITPYGDTTAQNRPDFKQNNGKNPDVGNEVIRRRKGG”, “not soluble”; with “MKFRRSGRLVDLTNYLLTHPHELIPLTFFSERYESAKSSISEDLTIIKQTFEQQGIGTLLTVPGAAGGVKYIPKMKQAEAEEFVQTLGQSLANPERILPGGYVYLTDILGKPSVLSKVGKLFASVFAEREIDVVMTVATKGIPLAYAAASYLNVPVVIVRKDNKVTEGSTVSINYVSGSSNRIQTMSLAKRSMKTGSNVLIIDDFMKAGGTINGMINLLDEFNANVAGIGVLVEAEGVDERLVDEYMSLLTLSTINMKEKSIEIQNGNFLRFFKDNLLKNGETESHHHHHH”, “soluble”.
For the sequence “MSEDLMDLSPEEGIERFLRHREPSVRESTMRNAKTRLRFFNEWCEERDIENLNNLTGRDLADFVAWRRGDIAALTLQKQLSTIREALRYWADIEGVDDGLAEKVHAPELEHHHHHH”, the “soluble on expression in E. coli” value is given as “not soluble”.
With “RYLLQRKASEALEVEVVDTWQADAVRDTRTLSGGESFLVSLALALALSDLVSHKTRIDSLFLDEGFGTLDSETLDTALDALDALNASGKTIGVISHVEAMKERIPVQIKVKKINGLGYSKLESAFAMK” the entry was “not soluble”; with “MGSDKIHHHHHHMQQVFFQETEFLNSVIDYDHKVETENLCLDIAYGTDKNFLFGCGISIASILKYNEGSRLCFHIFTDYFGDDDRKYFDALALQYKTRIKIYLINGDRLRSLPSTKNWTHAIYFRFVIADYFINKAPKVLYLDADIICQGTIEPLINFSFPDDKVAMVVTEGQADWWEKRAHSLGVAGIAKGYFNSGFLLINTAQWAAQQVSARAIAMLNEPEIIKKITHPDQDVLNMLLADKLIFADIKYNTQFSLNYQLKESFINPVTNDTIFIHYIGPTKPWHDWAWDYPVSQAFMEAKNASPWKNTALLKPNNSNQLRYSAKHMLKKHRYLKGFSNYLFYFIEKIKH”, “not soluble”.
Regarding “MTDVLPTIELFDGIAEELDNVSLRRDRQSGTRNVLLRFRALKALDRFNSFRSRFSKAIRLTDSEGAIELWPDSSKLVFGGDDGDELDRVEFVVPIDNEDHWQRFMRFMERYAAANDMTYGDRQALEHHHHHH”, the “soluble on expression in E. coli” value is reported as “soluble”.
With “MAELRSFIFIDRLQPQTMSYLGTWIKGALPRANMAAQIIEVAPGLDIEGVTDVALKHAEVKAGILVVERQFGYLEFHGETGAVKAAADAALDYLGGDPDAAVRPEILASRIISSIDHQHAFLINRNKIGSMVLPGESLFVLEVAPASYAILATNEAEKAADVKVVDFRMIGATGRVYLSGTEADVRQAADAARDALAVLQGA” the entry was “soluble”.
